Laboratory results taken from US6432920B1, “Nck SH3 binding peptides” (Cytogen Corporation, priority 1994, dated 2002).

Experiments:
Src SH3-GST [1] = target: T1, Src SH3-GST (Homo sapiens, UniProt P12931); assay: Phage clone binding to immobilized GST-SH3 (elution titering / anti-phage ELISA); conditions: FIG. 14
T1 construct: Bacterially expressed Src SH3 glutathione-S-transferase (Src-GST) fusion protein was purified from bacterial lysates; made in house; host or cells: bacteria (pGEX vector)
Method: Library screens were performed as previously described. Kay, B. K., et al., in Gene (1993) 128:59-65. Briefly, 1'10^11 pfu TSAR 9, TSAR 12, or R8C phage in Buffer A were incubated in a Src SH3-GST-coated well for 2 hours. The wells were washed, and bound phage were eluted with 100 μL 50 mM glycine-HCl (pH 2.2), transferred to a new well, and neutralized with […] 200 mM NaHPO4 (pH 7.0). Recovered phage were used to infect 1×10^9 DH5αF′ E. coli cells in 20 mL 2×YT; the infected cells were grown overnight, resulting in a 1000- to 10,000-fold amplification of phage titer. Amplified phage were panned twice more, as above, excepting the amplification step. Binding phage recovered after the third round of panning were plated at a low density on a lawn of DH5αF′ E. coli cells to yield isolated plaques for clonal analysis. […]
(§1) Indeed, the ability of isolated phage clones to bind to several SH3 domains derived from a variety of different proteins can be investigated by the manner described above. […] From these experiments, the relative specificity of different Src SH3 binding clones for SH3 domains derived from other proteins is determined.
To evaluate the binding of isolates to various targets proteins, enzyme-linked-immuno-assays (ELISA) were also performed. […] Plates are read with a plate reader (Molecular Devices, Menlo Park, Calif.) at 405 nm wavelength. […]

Yes SH3 = target: T2, Yes SH3 (Homo sapiens, UniProt P07947); assay: Phage clone binding to immobilized GST-SH3 (anti-phage ELISA); conditions: FIG. 14
T2 construct: a construct expressing the SH3 domain of Yes was obtained from Dr. Marius Sudol (Rockefeller University); made in house; host or cells: bacteria (pGEX vector)
T2 sequence (P07947 91-152 limits assumed): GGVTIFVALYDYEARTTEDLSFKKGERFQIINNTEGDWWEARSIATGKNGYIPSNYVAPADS
Method: as §1, with “above. GST-SH3 fusion proteins containing SH3 domains from a variety of different proteins are bound to microliter wells. An aliquot of the aforementioned phage stocks (50 μL) is introduced into wells containing the different GST-SH3 fusion proteins.” for “above.”
To evaluate the binding of isolates to various targets proteins, enzyme-linked-immuno-assays (ELISA) were also performed. […] Plates are read with a plate reader (Molecular Devices, Menlo Park, Calif.) at 405 nm wavelength.
Library screens were performed as described in Sparks, A., B., et al., in Methods in Enzymology, (1995) 255:498-509. […] The wells were washed five times with PBS+0.1% Tween 20, and bound phage were detected by anti-phage ELISA according to the manufacturer's instructions (Pharmacia, Piscataway, N.J.). […]
To explore further the capacity of SH3 domains to discriminate between different SH3 ligands, we investigated the binding of phage expressing various peptide ligands to a panel of SH3 domains. […] The wells were washed several times, and bound phage were detected with an anti-phage antibody (see FIG. 14). […]

Src SH3-GST [2] = target: T1, Src SH3-GST; assay: Biotinylated synthetic peptide binding ELISA to immobilized Src SH3-GST; conditions: not tested

Sequence	cross-reactivity of Src SH3 domain with phage clone selected with another SH3 domain (Src SH3-GST [1])	cross-reactivity of Yes SH3 domain with phage clone selected with another SH3 domain (Yes SH3)	surmised binding to a variety of SH3 domains (Src SH3-GST [2])
MPPPVPPRPPGTL	cross-reacted	cross-reacted	
RSTPAPPVPPRTTR			strong but generic binding
